For orientation: koff means a measure of how fast the partners let go of each other. Lower therefore signals slow dissociation.

Holding throughout (conditions): both partners purified
Experiment [1] addresses T1, factor H-binding protein variant 1 (fHbp var.1), recombinant, full length (Neisseria meningitidis, UniProt E6MV22).
T1 construct: source: E. coli BL21 (DE3) Star, pET-21b, purified (HisTrap HP, HiTrap SP HP)
As to the kind of experiment: negative-stain transmission electron microscopy (single particle, random conical tilt); complexes formed at 1:1 molar ratio, 1 h at room temperature, purified on Superdex 200 Increase; diluted to 0.03 mg/ml in 20 mM Tris, 300 mM NaCl, pH 8; 1% uranyl acetate.

The target of experiment [2] is T1, factor H-binding protein variant 1 …. Put plainly: HDX-MS; 54 pmol antibody mixed with an equimolar amount of fHbp var.1, 30 min at room temperature; exposure 30 s to 30 min; difference counted when above 1 Da.
Experiment [3] has the same target. As to the kind of experiment: SPR. A general note: In SPR one partner is held on a chip, and binding of the other changes the refractive index at the surface.
Experiment [4] addresses T2, human factor H (human, UniProt P08603 19-1231).
T2 construct: also called fH; human fH
Put plainly: SPR; quaternary complex: fHbp var.1 captured on immobilised mAb 7B10, second mAb 1A12 injected, then fH at 100 nM, 30 µl/min; HBS-P.

Experiment [5] has as its target T2, human factor H. Put plainly: SPR; quaternary complex: fHbp var.1 captured on immobilised mAb 7B10, second mAb 2C1 injected, then fH at 100 nM, 30 µl/min; HBS-P.
The target of experiment [6] is T2, human factor H. As to the kind of experiment: SPR; quaternary complex: fHbp var.1 captured on immobilised mAb 1A12, second mAb 1A3 injected, then fH at 100 nM, 30 µl/min; HBS-P.
Experiment [7] addresses T2, human factor H. As to the kind of experiment: SPR; fHbp var.1 captured on immobilised mAb 1A12, second mAb 2C1 injected, then fH at 100 nM, 30 µl/min; HBS-P.
Experiment [8] deals with T2, human factor H. Put plainly: SPR; quaternary complex: fHbp var.1 captured on immobilised mAb 1A3, second mAb 1A12 injected, then fH at 100 nM, 30 µl/min; HBS-P.
Experiment [9] addresses T2, human factor H. As to the kind of experiment: SPR; fHbp var.1 captured on immobilised mAb 7B10, second mAb 1A3 injected, then fH at 100 nM, 30 µl/min; HBS-P.
Experiment [10] addresses T2, human factor H. As to the kind of experiment: SPR; quaternary complex: fHbp var.1 captured on immobilised mAb 1A3, second mAb 2C1 injected, then fH at 100 nM, 30 µl/min; HBS-P.
In experiment [11] the target is T2, human factor H. Put plainly: SPR; ternary complex: fHbp var.1 captured on immobilised mAb 7B10 (CM-5), no second mAb; fH injected at 100 nM, 30 µl/min; HBS-P.
Experiment [12] deals with T2, human factor H. Put plainly: SPR; ternary complex: fHbp var.1 captured on immobilised mAb 1A12 (CM-5), no second mAb; fH injected at 100 nM, 30 µl/min; HBS-P.
Experiment [13] concerns the target T2, human factor H. As to the kind of experiment: SPR; fHbp var.1 captured on immobilised mAb 1A12, second mAb 1A12 injected (identical, no signal of the second mAb), then fH at 100 nM, 30 µl/min; HBS-P.
Experiment [14] has as its target T2, human factor H. Put plainly: SPR; ternary complex: fHbp var.1 captured on immobilised mAb 1A3 (CM-5), no second mAb; fH injected at 100 nM, 30 µl/min; HBS-P.
Experiment [15] deals with T2, human factor H. Put plainly: SPR; fHbp var.1 captured on immobilised mAb 1A3, second mAb 1A3 injected (identical, no signal of the second mAb), then fH at 100 nM, 30 µl/min; HBS-P.

T2 sequence (P08603 19-1231): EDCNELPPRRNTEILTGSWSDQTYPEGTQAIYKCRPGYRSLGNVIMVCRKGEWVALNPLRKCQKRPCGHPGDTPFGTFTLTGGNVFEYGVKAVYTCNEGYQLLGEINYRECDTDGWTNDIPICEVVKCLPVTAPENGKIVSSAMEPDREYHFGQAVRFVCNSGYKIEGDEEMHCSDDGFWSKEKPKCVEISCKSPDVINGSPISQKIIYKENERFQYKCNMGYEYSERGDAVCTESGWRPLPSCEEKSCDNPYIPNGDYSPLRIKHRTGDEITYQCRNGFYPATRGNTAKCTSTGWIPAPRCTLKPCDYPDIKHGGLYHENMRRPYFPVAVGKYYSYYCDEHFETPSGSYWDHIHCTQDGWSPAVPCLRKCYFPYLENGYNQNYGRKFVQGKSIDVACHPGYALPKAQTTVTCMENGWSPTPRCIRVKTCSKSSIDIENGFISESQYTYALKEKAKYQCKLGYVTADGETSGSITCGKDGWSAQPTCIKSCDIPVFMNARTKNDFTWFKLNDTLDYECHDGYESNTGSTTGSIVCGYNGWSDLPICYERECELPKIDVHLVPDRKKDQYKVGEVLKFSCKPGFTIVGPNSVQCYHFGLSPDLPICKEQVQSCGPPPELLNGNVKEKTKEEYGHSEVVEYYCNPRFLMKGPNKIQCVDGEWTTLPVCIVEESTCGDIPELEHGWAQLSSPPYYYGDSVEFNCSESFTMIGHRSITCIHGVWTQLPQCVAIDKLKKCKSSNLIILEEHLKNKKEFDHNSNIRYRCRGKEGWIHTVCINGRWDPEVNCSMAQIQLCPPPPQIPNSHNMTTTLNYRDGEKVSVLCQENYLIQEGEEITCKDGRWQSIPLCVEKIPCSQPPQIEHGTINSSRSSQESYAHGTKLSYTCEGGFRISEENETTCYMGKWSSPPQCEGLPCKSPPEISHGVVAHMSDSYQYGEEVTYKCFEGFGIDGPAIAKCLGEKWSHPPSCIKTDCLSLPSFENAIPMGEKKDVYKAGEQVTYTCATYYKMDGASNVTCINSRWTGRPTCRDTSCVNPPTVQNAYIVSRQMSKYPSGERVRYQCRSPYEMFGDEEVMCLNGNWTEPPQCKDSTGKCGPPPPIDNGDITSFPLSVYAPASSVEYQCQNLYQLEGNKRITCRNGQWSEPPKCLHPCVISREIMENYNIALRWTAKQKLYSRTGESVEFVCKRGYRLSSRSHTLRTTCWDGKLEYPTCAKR

B1: antigen-binding fragment of human mAb 2C1 (Fab, V domains shown)
VH: QVQLVESGGGVVQPGRSLRLSCAASGFTFSSFAMHWVRQAPGKGLEWVAVTSFDGKDEYYAASVKGRFSVSRDISKNTVYLQMNSLKTEDTAVYYCAKDRGDWDFDYWGQGTLVTVSS
VL: SYELTQPPSVSVSPGQTATITCSGEKLGDKYTSWYQQKPGQSPVLIIYQDTKRPSGIPARFSGSNSGNTATLTISGTQAVDEADYYCQAWDSYTVPFGGGTKLTVL
notes: also called fAb2C1; huFab 2C1; source: E. coli Rosetta 2, purified (His Gravity Trap, HiTrap SP HP)
Regarding B1, the binding result in [1] is reported as “binds”.

B2: human monoclonal antibody 2C1 (IgG1) against fHbp (antibody, V domains shown)
VH: QVQLVESGGGVVQPGRSLRLSCAASGFTFSSFAMHWVRQAPGKGLEWVAVTSFDGKDEYYAASVKGRFSVSRDISKNTVYLQMNSLKTEDTAVYYCAKDRGDWDFDYWGQGTLVTVSS
VL: SYELTQPPSVSVSPGQTATITCSGEKLGDKYTSWYQQKPGQSPVLIIYQDTKRPSGIPARFSGSNSGNTATLTISGTQAVDEADYYCQAWDSYTVPFGGGTKLTVL
notes: also called mAb2C1; mAb 2C1; source: Expi293 cells, transiently transfected, purified (protein G beads)
Consider B2, for which the binding result in experiment [2] is reported as “binds”.

B3: human monoclonal antibody 1A3 (IgG1) against fHbp (antibody, V domains shown)
VH: EVQLVESGGGLVQPGGSLRLSCAASGFTFSSYAMSWVRQAPGKGLEWVSAISGSGGSSHYTDSVKGRFTISRDNSKNTLWLQMNSLRAEDTAIYYCAKTSGSYYYHYEIDVWGQGTTVTVSS
VL: EIVLTQSPGTLSLSPGERATLSCRASQSVSSSYLAWYQQKPGQAPRLLIYGTSNRATGIPDRFSGSGSGTDFTLTVSRLEPEDFAVYYCQQYGSSPCSFGQGTKLELK
notes: also called mAb1A3; mAb 1A3; source: Expi293 cells, transiently transfected, purified (protein G beads)
Turning to B3, in experiment [3], the binding result was “binds”.

B4: factor H-binding protein variant 1 (fHbp var.1), recombinant, full length (natural protein)
chain: CSSGGGGVAADIGAGLADALTAPLDHKDKGLQSLTLDQSVRKNEKLKLAAQGAEKTYGNGDSLNTGKLKNDKVSRFDFIRQIEVDGQLITLESGEFQVYKQSHSALTAFQTEQIQDSEHSGKMVAKRQFRIGDIAGEHTSFDKLPEGGRATYRGTAFGSDDAGGKLTYTIDFAAKQGNGKIEHLKSPELNVDLAAADIKPDGKRHAVISGSVLYNQAEKGSYSLGIFGGKAQEVAGSAEVKTVNGIRHIGLAAKQ
notes: source: E. coli BL21 (DE3) Star, pET-21b, purified (HisTrap HP, HiTrap SP HP)
For B4, the koff with human factor H [4] stood at 0.00011 s⁻¹; in the experiment with human factor H [5] it was 0.00029 s⁻¹; with human factor H [6], 0.00068 s⁻¹; with human factor H [7], 0.043 s⁻¹; in the experiment with human factor H [8], 0.00035 s⁻¹; with human factor H [9], 0.00032 s⁻¹. The koff with human factor H [10] was determined as 0.00063 s⁻¹; with human factor H [11], 0.00032 s⁻¹; with human factor H [12] it was 0.0016 s⁻¹; in the experiment with human factor H [13], 0.0018 s⁻¹; with human factor H [14] it was 0.00074 s⁻¹; in the experiment with human factor H [15], 0.00074 s⁻¹.

B5: human monoclonal antibody 7B10 (IgG1) against fHbp (antibody, V domains shown)
VH: QVQLVESGGGLVQPGGSLRLSCVTSGFTFRSYAMTWVRQAPGKGLEWVSSISHSGGSTKYADSVKGRLTISRDDSMDTLYLQMNSLRAEDTAIYYCAKDQISYPAASPLDYWGRGTLVTVSS
VL: EIVLTQSPGTLSLSPGERATLSCRASQSFSSFSLAWYQQKPGQAPRLLIYAPSNRATGIADRFSGSGSGTDFTLTISRLEPEDFAVYYCQQYGSSPITFGQGTRLEIK
notes: also called mAb7B10; mAb 7B10; source: Expi293 cells, transiently transfected, purified (protein G beads)
With B5, in experiment [2], the binding result is given as “binds”.

B6: antigen-binding fragment of human mAb 7B10 (Fab, V domains shown)
VH: QVQLVESGGGLVQPGGSLRLSCVTSGFTFRSYAMTWVRQAPGKGLEWVSSISHSGGSTKYADSVKGRLTISRDDSMDTLYLQMNSLRAEDTAIYYCAKDQISYPAASPLDYWGRGTLVTVSS
VL: EIVLTQSPGTLSLSPGERATLSCRASQSFSSFSLAWYQQKPGQAPRLLIYAPSNRATGIADRFSGSGSGTDFTLTISRLEPEDFAVYYCQQYGSSPITFGQGTRLEIK
notes: also called fAb7B10; huFab 7B10; source: E. coli Rosetta 2, purified (His Gravity Trap, HiTrap SP HP)
As to B6, the binding result in experiment [1] was “binds”.

B7: human monoclonal antibody 1A12 (IgG1) against fHbp (antibody, V domains shown)
VH: EVQLVQSGAELKKPGESLKISCKASGYTFTNYWVVWVRQMPGEGLEWMGSIHPRDSDARYSLSFEGRVTFSVDKSTTTAYLQWSSLKVSDSAIYYCARLSQVSGWSPWVGPWGQGTLVTVSS
VL: DIVMTQSPSSLSASVGDRVTITCRASQSISVSLNWYQQKPGKAPKVLIYAASRLQSGIPSRFSGSGSGSHFTLTISSLQPEDFATYYCQETYSDLMYTFGQGTKVEIK
notes: also called mAb1A12; mAb 1A12; source: Expi293 cells, transiently transfected, purified (protein G beads)
With B7, the binding result in experiment [3] was “binds”.

Source of the values: paper PMC6595007, “Structural basis for cooperativity of human monoclonal antibodies to meningococcal factor H-binding protein” (Communications Biology, 2019).
